This is an account of results in patent publication US20220177567A1 (WASHINGTON UNIVERSITY, published 2022).

Assay [1] concerns the target T1, human FLAG-tagged IL12Rβ1 expressed on EL-4 cells (human, UniProt P42701 24-662).
T1 construct: whole, on cells; EL-4 cell line transduced with a construct encoding human FLAG-tagged IL12Rβ1; also called EL-4-human IL-12Rβ1 cells; human IL12Rβ1; not shown: FLAG tag
Put plainly: flow cytometry, hybridoma supernatant followed by anti-mouse IgG PE. The text has this:
EL-4-human IL-12Rβ1 cell line: The EL-4 cell line was transduced with a construct encoding the human FLAG-tagged IL12Rβ1 Flow cytometry: EL-4-human IL-12Rβ1 cells were stained with supernatants from different hybridoma clones followed by anti-mouse IgG Pe. Staining was compared with that obtained with anti-FLAG Tag followed by anti-mouse IgG Pe. Hybridoma clones staining the same percentage of cells stained by anti-FLAG Tag were selected and further tested in primary cells (FIG. 2).

The target of assay [2] is T2, human IL12Rβ1 (native, on human primary cells) (human, UniProt P42701 24-662).
T2 construct: whole, on cells; Endogenous receptor on human tonsil ILC3 and peripheral blood lymphocytes; also called CD212; interleukin 12 receptor subunit beta 1
Briefly: summary statement; no affinity method or value given.

B1: 1G6 anti-IL12Rβ1 monoclonal antibody (antibody, V domains shown)
VH: RVQLQQSGAELAKPGASVRLSCMASGYTFTSYWMHWVKQRPGQGLEWIGYIDPNNGYTKYSQKFKDKATLTADKSSSTANMRLSSLTYEDSAVYYCVRGGEIYYFDYWGQGTTLTVSS
VL: DIQMTQSPSSLSASLGGKVTITCKASQDIYKYIAWYQHKPGKGPRLLIHYTSTLQPGIPSRFSGSGSGRDYSFSISDLEPEDIATYYCLQYDNILWTFGGGTKLEIKR
notes: Hybridoma monoclonal antibody, detected with anti-mouse IgG PE; Tested as hybridoma supernatant and also in biotinylated form; also called IG6; mab (1 G6)
Consider B1, for which the binding result in assay [1] and in assay [2] was “binds” each time.
